Target: the molecule itself
Assay: negative-stain TEM + far-UV CD + autofluorescence of amyloid fibril formation; tag-free DPF3a alone, ~4.5 uM (0.18 mg/mL), incubated at ~25 °C for seven days in 50 mM Tris-HCl pH 8, 150 mM NaCl (reference); also at pH 12 in 150 mM NaCl and at pH 8 in 300 and 500 mM NaCl, where fibrils formed later, shorter and in lower number

B1: double PHD fingers 3 (DPF3) protein, isoform DPF3a, full-length (natural protein, human, UniProt Q92784-2 1-357, looked up)
chain: MATVIHNPLKALGDQFYKEAIEHCRSYNSRLCAERSVRLPFLDSQTGVAQNNCYIWMEKRHRGPGLAPGQLYTYPARCWRKKRRLHPPEDPKLRLLEIKPEVELPLKKDGFTSESTTLEALLRGEGVEKKVDAREEESIQEIQRVLENDENVEEGNEEEDLEEDIPKRKNRTRGRARGSAGGRRRHDAASQEDHDKPYVCDICGKRYKNRPGLSYHYAHTHLASEEGDEAQDQETRSPPNHRNENHRPQKGPDGTVIPNNYCDFCLGGSNMNKKSGRPEELVSCADCGRSAHLGGEGRKEKEAAAAARTTEDLFGSTSESDTSTFHGFDEDDLEEPRSCRGRRSGRGSPTADKKGSC
notes: Human DPF3, isoform DPF3a, full length; molecular mass 40244 Da; Metalloprotein with a C2H2 zinc finger; also called full-length DPF3a; source: E. coli BL21 Rosetta (DE3), purified (GSTrap FF, on-column TEV cleavage of the GST tag); not shown: GST, N-terminal, cleaved
- binding result: binds

— publication doi:10.1101/2025.02.24.640013, “Exploration of the influence of environmental changes on the conformational and amyloidogenic landscapes of the zinc finger protein DPF3a by combining biophysical and molecular dynamics approaches” (bioRxiv, 2025)
